Assay results: patent US12060424 (AMUNIX PHARMACEUTICALS, dated 2024)
Changes are numbered by the printed parent chain.

B1: AC1695 protease-untreated anti-EpCAM×anti-CD3 ProTIA (bispecific antibody)
chain: DIQMTQSPSSLSASVGDRVTITCRSTKSLLHSNGITYLYWYQQKPGKAPKLLIYQMSNLASGVPSRFSSSGSGTDFTLTISSLQPEDFATYYCAQNLEIPRTFGQGTKVEIKGATPPETGAETESPGETTGGSAESEPPGEGQVQLVQSGPGLVQPGGSVRISCAASGYTFTNYGMNWVKQAPGKGLEWMGWINTYTGESTYADSFKGRFTFSLDTSASAAYLQINSLRAEDTAVYYCARFAIKGDYWGQGTLLTVSSGGGGSDIQMTQSPSSLSASVGDRVTITCRASQDIRNYLNWYQQKPGKAPKLLIYYTSRLESGVPSRFSGSGSGTDYTLTISSLQPEDFATYYCQQGNTLPWTFGQGTKVEIKGATPPETGAETESPGETTGGSAESEPPGEGEVQLVESGGGLVQPGGSLRLSCAASGYSFTGYTMNWVRQAPGKGLEWVALINPYKGVSTYNQKFKDRFTISVDKSKNTAYLQMNSLRAEDTAVYYCARSGYYGDSDWYFDVWGQGTLVTVSSGTAEAASASGTTGRAGEAANLTPAGLTGPPGSPAGSPTSTEEGTSESATPESGPGTSTEPSEGSAPGSPAGSPTSTEEGTSTEPSEGSAPGTSTEPSEGSAPGTSESATPESGPGSEPATSGSETPGSEPATSGSETPGSPAGSPTSTEEGTSESATPESGPGTSTEPSEGSAPGTSTEPSEGSAPGSPAGSPTSTEEGTSTEPSEGSAPGTSTEPSEGSAPGTSESATPESGPGTSTEPSEGSAPGTSESATPESGPGSEPATSGSETPGTSTEPSEGSAPGTSTEPSEGSAPGTSESATPESGPGTSESATPESGPGSPAGSPTSTEEGTSESATPESGPGSEPATSGSETPGTSESATPESGPGTSTEPSEGSAPGTSTEPSEGSAPGTSTEPSEGSAPGTSTEPSEGSAPGTSTEPSEGSAPGTSTEPSEGSAPGSPAGSPTSTEEGTSTEPSEGSAPGTSESATPESGPGSEPATSGSETPGTSESATPESGPGSEPATSGSETPGTSESATPESGPGTSTEPSEGSAPGTSESATPESGPGSPAGSPTSTEEGSPAGSPTSTEEGSPAGSPTSTEEGTSESATPESGPGTSTEPSEGSAPGTSESATPESGPGSEPATSGSETPGTSESATPESGPGSEPATSGSETPGTSESATPESGPGTSTEPSEGSAPGSPAGSPTSTEEGTSESATPESGPGSEPATSGSETPGTSESATPESGPGSPAGSPTSTEEGSPAGSPTSTEEGTSTEPSEGSAPGTSESATPESGPGTSESATPESGPGTSESATPESGPGSEPATSGSETPGSEPATSGSETPGSPAGSPTSTEEGTSTEPSEGSAPGTSTEPSEGSAPGSEPATSGSETPGTSESATPESGPGTSTEPSEGSAPGHHHHHH
B2: AC1685 protease-untreated anti-EpCAM×anti-CD3 ProTIA (bispecific antibody)
chain: DIQMTQSPSSLSASVGDRVTITCRSTKSLLHSNGITYLYWYQQKPGKAPKLLIYQMSNLASGVPSRFSSSGSGTDFTLTISSLQPEDFATYYCAQNLEIPRTFGQGTKVEIKGATPPETGAETESPGETTGGSAESEPPGEGQVQLVQSGPGLVQPGGSVRISCAASGYTFTNYGMNWVKQAPGKGLEWMGWINTYTGESTYADSFKGRFTFSLDTSASAAYLQINSLRAEDTAVYYCARFAIKGDYWGQGTLLTVSSGGGGSDIQMTQSPSSLSASVGDRVTITCRASQDIRNYLNWYQQKPGKAPKLLIYYTSRLESGVPSRFSGSGSGTDYTLTISSLQPEDFATYYCQQGNTLPWTFGQGTKVEIKGATPPETGAETESPGETTGGSAESEPPGEGEVQLVESGGGLVQPGGSLRLSCAASGYSFTGYTMNWVRQAPGKGLEWVALINPYKGVSTYNQKFKDRFTISVDKSKNTAYLQMNSLRAEDTAVYYCARSGYYGDSDWYFDVWGQGTLVTVSSGTAEAASASGESGRAANTAPEGLTGPPGSPAGSPTSTEEGTSESATPESGPGTSTEPSEGSAPGSPAGSPTSTEEGTSTEPSEGSAPGTSTEPSEGSAPGTSESATPESGPGSEPATSGSETPGSEPATSGSETPGSPAGSPTSTEEGTSESATPESGPGTSTEPSEGSAPGTSTEPSEGSAPGSPAGSPTSTEEGTSTEPSEGSAPGTSTEPSEGSAPGTSESATPESGPGTSTEPSEGSAPGTSESATPESGPGSEPATSGSETPGTSTEPSEGSAPGTSTEPSEGSAPGTSESATPESGPGTSESATPESGPGSPAGSPTSTEEGTSESATPESGPGSEPATSGSETPGTSESATPESGPGTSTEPSEGSAPGTSTEPSEGSAPGTSTEPSEGSAPGTSTEPSEGSAPGTSTEPSEGSAPGTSTEPSEGSAPGSPAGSPTSTEEGTSTEPSEGSAPGTSESATPESGPGSEPATSGSETPGTSESATPESGPGSEPATSGSETPGTSESATPESGPGTSTEPSEGSAPGTSESATPESGPGSPAGSPTSTEEGSPAGSPTSTEEGSPAGSPTSTEEGTSESATPESGPGTSTEPSEGSAPGTSESATPESGPGSEPATSGSETPGTSESATPESGPGSEPATSGSETPGTSESATPESGPGTSTEPSEGSAPGSPAGSPTSTEEGTSESATPESGPGSEPATSGSETPGTSESATPESGPGSPAGSPTSTEEGSPAGSPTSTEEGTSTEPSEGSAPGTSESATPESGPGTSESATPESGPGTSESATPESGPGSEPATSGSETPGSEPATSGSETPGSPAGSPTSTEEGTSTEPSEGSAPGTSTEPSEGSAPGSEPATSGSETPGTSESATPESGPGTSTEPSEGSAPGHHHHHH
B3: AC1686 protease-untreated anti-EpCAM×anti-CD3 ProTIA (bispecific antibody)
chain: B2 chain with S534P, T540H, A541E, E543S, G547E, P548G
B4: AC1714 protease-untreated anti-EpCAM×anti-CD3 ProTIA (bispecific antibody)
chain: B2 chain with S534A, A537S, T540H, A541T, E543A
B5: AC1715 protease-untreated anti-EpCAM×anti-CD3 ProTIA (bispecific antibody)
chain: B2 chain with A541T, E543A

What follows are binders tested against T1, human EpCAM expressed on cells (CHO cells stably transfected with human EpCAM); EpCAM-positive human tumor … (human, UniProt P16422 24-314) (assay: cell-based or functional assay).
T1 sequence (looked up): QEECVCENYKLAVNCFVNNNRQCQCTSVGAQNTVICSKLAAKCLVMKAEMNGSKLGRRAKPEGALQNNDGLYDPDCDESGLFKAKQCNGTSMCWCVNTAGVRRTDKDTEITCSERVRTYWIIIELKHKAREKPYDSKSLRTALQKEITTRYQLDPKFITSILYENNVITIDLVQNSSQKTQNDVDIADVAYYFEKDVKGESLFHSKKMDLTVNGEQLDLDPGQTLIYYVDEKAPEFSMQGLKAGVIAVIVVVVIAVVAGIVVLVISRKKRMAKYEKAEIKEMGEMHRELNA

Binder	EC50 (pM), caspase 3/7 cytotoxicity, PBMC with HCT-116 cells 10:1	EC50 (pM), caspase 3/7 cytotoxicity, PBMC with HPAF-II cells 10:1	EC50 (pM), caspase 3/7 cytotoxicity, PBMC with MDA-MB-231 cells 10:1
B1	53 pM	18 pM	3750 pM
B2	27 pM	29 pM	4340 pM
B3	240 pM	118 pM	2680 pM
B4	52 pM	20 pM	1740 pM
B5	20 pM	14 pM	1190 pM

The binders below were run against recombinant human CD3 epsilon & delta (rhCD3ε & δ), Creative BioMart cat #CD3E&CD3D-219H (human) (UniProt P07766) (assay: sandwich ELISA: rhCD3ε & δ coated, biotinylated anti-XTEN antibody detection).
Chain of recombinant human CD3 epsilon & delta (rhCD3ε & δ), Creative BioMart cat #CD3E&CD3D-219H (human) (P07766 23-126, stated change not applied, chain 1 of 2): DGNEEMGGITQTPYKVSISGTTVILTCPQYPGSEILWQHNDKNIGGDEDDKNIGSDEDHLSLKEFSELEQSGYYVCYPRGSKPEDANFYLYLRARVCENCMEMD
Chain of recombinant human CD3 epsilon & delta (rhCD3ε & δ), Creative BioMart cat #CD3E&CD3D-219H (human) (P04234 22-105, stated change not applied, chain 2 of 2, further chain): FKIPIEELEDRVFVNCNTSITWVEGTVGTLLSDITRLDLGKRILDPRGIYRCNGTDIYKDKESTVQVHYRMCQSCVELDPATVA

EC50	Binder
0.028 µg/mL	B1
0.029 µg/mL	B2
0.026 µg/mL	B3
0.03 µg/mL	B4
0.034 µg/mL	B5
